Key:
[1] = molecular target: T1, soluble mouse FcγRII, His-tagged (mouse, UniProt P08101 30-210, limits assumed); assay: SPR, mouse FcgRII-His captured, antigen-antibody complex injected, pH7.4, 25C
T1 construct: Captured on the chip by an anti-His antibody
T1 sequence (looked up): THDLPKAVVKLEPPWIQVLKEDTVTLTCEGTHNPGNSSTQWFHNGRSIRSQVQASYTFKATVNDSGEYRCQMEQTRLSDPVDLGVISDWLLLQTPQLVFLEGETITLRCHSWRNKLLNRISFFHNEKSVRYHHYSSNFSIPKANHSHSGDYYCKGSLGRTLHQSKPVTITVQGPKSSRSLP
Description: Regarding the produced Fc region variant-containing antibodies, binding assays between soluble mouse FcγRII and antigen-antibody complexes were performed using BIACORE® T200 (GE Healthcare). Soluble mouse FcγRII was produced in the form of a His-tagged molecule by a method known to those skilled in the art. An appropriate amount of an anti-His antibody was fixed onto Sensor chip CM5 (GE Healthcare) by the amine coupling method using a His capture kit (GE Healthcare) to capture mouse FcγRII. Next, an antibody-antigen complex and a running buffer (as a reference solution) were injected, and interaction was allowed to take place with the mouse FcγRII captured onto the sensor chip. 20 mM N-(2-Acetamido)-2-aminoethanesulfonic acid, 150 mM NaCl, 1.2 mM CaCl₂, and 0.05% (w/v) TWEEN, 20 at pH7.4 was used as the running buffer, and the respective buffer was also used to dilute the soluble mouse FcγRII. To regenerate the sensor chip, 10 mM glycine-HCl at pH1.5 was used. All measurements were carried out at 25° C. […] To calculate the parameters, the BIACORE® T100 Evaluation Software (GE Healthcare) was used.

[2] = molecular target: T2, human FcγRIIb constitutively expressed on MDCK cells (human, UniProt P31994 43-310); assay: cell-based or functional assay
T2 sequence (looked up): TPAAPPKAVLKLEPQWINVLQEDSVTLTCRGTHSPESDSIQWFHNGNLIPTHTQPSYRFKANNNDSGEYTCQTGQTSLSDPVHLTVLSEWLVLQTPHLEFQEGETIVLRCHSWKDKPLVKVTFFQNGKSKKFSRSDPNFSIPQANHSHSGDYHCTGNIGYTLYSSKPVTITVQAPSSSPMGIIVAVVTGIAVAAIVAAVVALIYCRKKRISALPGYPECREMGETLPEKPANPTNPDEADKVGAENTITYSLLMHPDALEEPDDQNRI

B1: M103205H795-P1375m/M103202L889-SK1 (antibody, human IgG1, kappa)
heavy: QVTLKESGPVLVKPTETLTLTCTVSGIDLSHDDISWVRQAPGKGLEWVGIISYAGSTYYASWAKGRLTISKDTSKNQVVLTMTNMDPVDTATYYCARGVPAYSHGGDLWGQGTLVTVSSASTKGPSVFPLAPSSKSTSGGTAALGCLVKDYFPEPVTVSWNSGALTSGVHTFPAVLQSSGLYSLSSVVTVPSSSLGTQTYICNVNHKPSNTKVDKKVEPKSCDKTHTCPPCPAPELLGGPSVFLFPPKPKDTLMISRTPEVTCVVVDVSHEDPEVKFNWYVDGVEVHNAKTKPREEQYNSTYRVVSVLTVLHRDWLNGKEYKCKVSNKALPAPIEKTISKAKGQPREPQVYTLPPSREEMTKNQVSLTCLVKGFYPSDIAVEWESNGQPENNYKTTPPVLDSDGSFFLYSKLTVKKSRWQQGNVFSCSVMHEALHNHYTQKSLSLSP
light: DIVMTQSPATLSLSPGERATLSCTSSQSVYHANWLSWFQQKPGQPPKLLIYWASTLAYGVPSRFSGSGSGTDFTLTISSLQPEDAATYYCAGGYGGGRYAFGQGTKVEIKRTVAAPSVFIFPPSDEQLKSGTASVVCLLNNFYPREAKVQWKVDNALQSGNSQESVTEQDSKDSTYSLSSTLTLSKADYEKHKVYACEVTHQGLSSPVTKSFNRGEC
notes: also called MS1032LO06-P1375m
For B1, the “biacore IC binding” value [1] was 1.21 relative to SG1 (=1.00) and the celluar uptake [2] was 3.43 relative to SG1 (=1.00).

B2: M103205H795-P1378m/M103202L889-SK1 (antibody, human IgG1, kappa)
heavy: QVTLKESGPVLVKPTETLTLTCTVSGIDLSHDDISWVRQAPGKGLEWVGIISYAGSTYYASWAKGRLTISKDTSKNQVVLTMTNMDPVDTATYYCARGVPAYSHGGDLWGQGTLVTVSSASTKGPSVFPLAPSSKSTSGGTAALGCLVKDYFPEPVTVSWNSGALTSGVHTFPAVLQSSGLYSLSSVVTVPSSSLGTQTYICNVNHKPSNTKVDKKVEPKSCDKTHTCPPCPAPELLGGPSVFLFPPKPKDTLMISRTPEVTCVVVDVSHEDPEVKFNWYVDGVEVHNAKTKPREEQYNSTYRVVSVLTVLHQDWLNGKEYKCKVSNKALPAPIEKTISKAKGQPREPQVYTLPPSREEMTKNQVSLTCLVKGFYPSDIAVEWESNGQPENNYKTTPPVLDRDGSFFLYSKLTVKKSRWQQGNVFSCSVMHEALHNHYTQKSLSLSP
light: DIVMTQSPATLSLSPGERATLSCTSSQSVYHANWLSWFQQKPGQPPKLLIYWASTLAYGVPSRFSGSGSGTDFTLTISSLQPEDAATYYCAGGYGGGRYAFGQGTKVEIKRTVAAPSVFIFPPSDEQLKSGTASVVCLLNNFYPREAKVQWKVDNALQSGNSQESVTEQDSKDSTYSLSSTLTLSKADYEKHKVYACEVTHQGLSSPVTKSFNRGEC
notes: also called MS1032LO06-P1378m
B2 was tested, and the “biacore IC binding” value [1] was 1.23 relative to SG1 (=1.00) and the celluar uptake [2] was 3.86 relative to SG1 (=1.00).

B3: M103205H795-P1489m/M103202L889-SK1 (antibody, human IgG1, kappa)
heavy: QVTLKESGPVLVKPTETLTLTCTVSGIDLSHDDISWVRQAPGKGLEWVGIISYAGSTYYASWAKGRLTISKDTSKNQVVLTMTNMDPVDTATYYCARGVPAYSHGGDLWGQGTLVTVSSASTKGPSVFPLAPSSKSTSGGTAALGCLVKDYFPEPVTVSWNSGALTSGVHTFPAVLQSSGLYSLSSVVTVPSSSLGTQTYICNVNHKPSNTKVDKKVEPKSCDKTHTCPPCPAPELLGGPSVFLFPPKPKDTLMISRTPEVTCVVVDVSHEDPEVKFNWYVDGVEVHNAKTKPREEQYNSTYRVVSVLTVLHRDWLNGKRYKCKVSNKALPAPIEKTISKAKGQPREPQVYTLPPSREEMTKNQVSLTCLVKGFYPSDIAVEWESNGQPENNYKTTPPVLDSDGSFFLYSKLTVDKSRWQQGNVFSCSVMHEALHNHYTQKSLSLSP
light: DIVMTQSPATLSLSPGERATLSCTSSQSVYHANWLSWFQQKPGQPPKLLIYWASTLAYGVPSRFSGSGSGTDFTLTISSLQPEDAATYYCAGGYGGGRYAFGQGTKVEIKRTVAAPSVFIFPPSDEQLKSGTASVVCLLNNFYPREAKVQWKVDNALQSGNSQESVTEQDSKDSTYSLSSTLTLSKADYEKHKVYACEVTHQGLSSPVTKSFNRGEC
For B3, the “biacore IC binding” value [1] was 1.24 relative to SG1 (=1.00) and the celluar uptake [2] was 1.68 relative to SG1 (=1.00).

B4: M103205H795-P1485m/M103202L889-SK1 (antibody, human IgG1, kappa)
heavy: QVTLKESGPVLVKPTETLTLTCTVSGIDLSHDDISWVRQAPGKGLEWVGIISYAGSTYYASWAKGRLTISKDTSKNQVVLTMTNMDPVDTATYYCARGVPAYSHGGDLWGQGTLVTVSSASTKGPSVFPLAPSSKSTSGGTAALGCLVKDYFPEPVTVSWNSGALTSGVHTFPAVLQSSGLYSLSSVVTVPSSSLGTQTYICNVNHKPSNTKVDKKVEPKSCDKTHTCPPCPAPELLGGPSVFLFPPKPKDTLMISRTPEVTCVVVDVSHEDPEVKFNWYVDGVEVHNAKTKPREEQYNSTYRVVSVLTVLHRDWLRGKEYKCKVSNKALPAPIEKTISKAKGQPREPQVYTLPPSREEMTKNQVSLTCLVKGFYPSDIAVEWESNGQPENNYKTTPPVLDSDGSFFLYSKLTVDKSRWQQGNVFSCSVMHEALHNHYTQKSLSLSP
light: DIVMTQSPATLSLSPGERATLSCTSSQSVYHANWLSWFQQKPGQPPKLLIYWASTLAYGVPSRFSGSGSGTDFTLTISSLQPEDAATYYCAGGYGGGRYAFGQGTKVEIKRTVAAPSVFIFPPSDEQLKSGTASVVCLLNNFYPREAKVQWKVDNALQSGNSQESVTEQDSKDSTYSLSSTLTLSKADYEKHKVYACEVTHQGLSSPVTKSFNRGEC
For B4, the “biacore IC binding” value [1] was 1.29 relative to SG1 (=1.00) and the celluar uptake [2] was 1.88 relative to SG1 (=1.00).

B5: M103205H795-P1488m/M103202L889-SK1 (antibody, human IgG1, kappa)
heavy: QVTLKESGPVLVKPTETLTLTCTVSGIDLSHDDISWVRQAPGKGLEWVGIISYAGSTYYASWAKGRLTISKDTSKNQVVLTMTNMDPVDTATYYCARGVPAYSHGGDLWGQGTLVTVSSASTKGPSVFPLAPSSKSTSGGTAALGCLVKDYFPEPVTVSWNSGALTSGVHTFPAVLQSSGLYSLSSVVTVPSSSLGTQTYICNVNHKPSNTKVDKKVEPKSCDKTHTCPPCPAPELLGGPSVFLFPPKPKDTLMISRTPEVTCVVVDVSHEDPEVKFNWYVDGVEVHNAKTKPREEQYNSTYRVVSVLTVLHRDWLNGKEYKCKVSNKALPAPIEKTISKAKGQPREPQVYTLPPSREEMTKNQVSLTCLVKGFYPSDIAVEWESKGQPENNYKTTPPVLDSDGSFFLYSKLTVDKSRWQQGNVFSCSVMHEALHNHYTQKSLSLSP
light: DIVMTQSPATLSLSPGERATLSCTSSQSVYHANWLSWFQQKPGQPPKLLIYWASTLAYGVPSRFSGSGSGTDFTLTISSLQPEDAATYYCAGGYGGGRYAFGQGTKVEIKRTVAAPSVFIFPPSDEQLKSGTASVVCLLNNFYPREAKVQWKVDNALQSGNSQESVTEQDSKDSTYSLSSTLTLSKADYEKHKVYACEVTHQGLSSPVTKSFNRGEC
B5 was tested, and the “biacore IC binding” value [1] was 1.43 relative to SG1 (=1.00) and the celluar uptake [2] was 1.45 relative to SG1 (=1.00).

B6: M103205H795-P1486m/M103202L889-SK1 (antibody, human IgG1, kappa)
heavy: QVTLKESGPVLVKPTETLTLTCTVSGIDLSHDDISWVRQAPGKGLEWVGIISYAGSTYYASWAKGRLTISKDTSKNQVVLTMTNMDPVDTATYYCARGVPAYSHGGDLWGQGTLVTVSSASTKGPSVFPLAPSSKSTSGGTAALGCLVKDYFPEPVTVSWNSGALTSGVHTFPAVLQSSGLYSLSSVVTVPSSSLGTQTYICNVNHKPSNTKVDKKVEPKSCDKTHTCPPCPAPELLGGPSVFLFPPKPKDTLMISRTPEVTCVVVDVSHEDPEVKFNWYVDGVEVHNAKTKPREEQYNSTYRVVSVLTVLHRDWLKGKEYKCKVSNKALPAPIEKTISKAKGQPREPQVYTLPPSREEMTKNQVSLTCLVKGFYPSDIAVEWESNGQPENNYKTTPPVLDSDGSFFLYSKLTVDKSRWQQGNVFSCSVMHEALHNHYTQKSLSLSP
light: DIVMTQSPATLSLSPGERATLSCTSSQSVYHANWLSWFQQKPGQPPKLLIYWASTLAYGVPSRFSGSGSGTDFTLTISSLQPEDAATYYCAGGYGGGRYAFGQGTKVEIKRTVAAPSVFIFPPSDEQLKSGTASVVCLLNNFYPREAKVQWKVDNALQSGNSQESVTEQDSKDSTYSLSSTLTLSKADYEKHKVYACEVTHQGLSSPVTKSFNRGEC
With B6 the “biacore IC binding” value [1] was 1.2 relative to SG1 (=1.00) and the celluar uptake [2] was 1.52 relative to SG1 (=1.00).

B7: M103205H795-P1490m/M103202L889-SK1 (antibody, human IgG1, kappa)
heavy: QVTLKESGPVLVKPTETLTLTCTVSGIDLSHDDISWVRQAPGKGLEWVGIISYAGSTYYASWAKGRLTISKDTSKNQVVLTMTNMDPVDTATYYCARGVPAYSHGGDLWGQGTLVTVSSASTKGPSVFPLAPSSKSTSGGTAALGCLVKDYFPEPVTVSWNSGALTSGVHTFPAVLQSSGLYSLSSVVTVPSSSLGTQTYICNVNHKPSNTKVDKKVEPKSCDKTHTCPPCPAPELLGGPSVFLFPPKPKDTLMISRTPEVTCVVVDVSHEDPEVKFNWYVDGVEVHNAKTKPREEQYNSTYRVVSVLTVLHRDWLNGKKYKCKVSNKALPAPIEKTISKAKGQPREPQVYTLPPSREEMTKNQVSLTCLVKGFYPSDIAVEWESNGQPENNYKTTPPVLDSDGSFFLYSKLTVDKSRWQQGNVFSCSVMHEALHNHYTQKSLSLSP
light: DIVMTQSPATLSLSPGERATLSCTSSQSVYHANWLSWFQQKPGQPPKLLIYWASTLAYGVPSRFSGSGSGTDFTLTISSLQPEDAATYYCAGGYGGGRYAFGQGTKVEIKRTVAAPSVFIFPPSDEQLKSGTASVVCLLNNFYPREAKVQWKVDNALQSGNSQESVTEQDSKDSTYSLSSTLTLSKADYEKHKVYACEVTHQGLSSPVTKSFNRGEC
B7 was tested, and the “biacore IC binding” value [1] was 1.28 relative to SG1 (=1.00) and the celluar uptake [2] was 1.33 relative to SG1 (=1.00).

B8: M103205H795-P1493m/M103202L889-SK1 (antibody, human IgG1, kappa)
heavy: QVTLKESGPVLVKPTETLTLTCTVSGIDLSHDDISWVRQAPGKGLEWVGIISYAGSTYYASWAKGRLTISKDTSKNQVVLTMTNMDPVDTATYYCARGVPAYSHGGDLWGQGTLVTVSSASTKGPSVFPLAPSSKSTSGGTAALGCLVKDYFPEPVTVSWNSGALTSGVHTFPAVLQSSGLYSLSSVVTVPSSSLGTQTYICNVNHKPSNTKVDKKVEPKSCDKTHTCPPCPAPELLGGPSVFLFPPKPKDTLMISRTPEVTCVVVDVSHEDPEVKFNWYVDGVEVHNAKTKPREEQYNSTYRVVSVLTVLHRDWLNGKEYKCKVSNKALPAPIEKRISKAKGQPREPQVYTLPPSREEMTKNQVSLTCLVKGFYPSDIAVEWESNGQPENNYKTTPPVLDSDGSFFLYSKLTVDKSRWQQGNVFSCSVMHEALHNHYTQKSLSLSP
light: DIVMTQSPATLSLSPGERATLSCTSSQSVYHANWLSWFQQKPGQPPKLLIYWASTLAYGVPSRFSGSGSGTDFTLTISSLQPEDAATYYCAGGYGGGRYAFGQGTKVEIKRTVAAPSVFIFPPSDEQLKSGTASVVCLLNNFYPREAKVQWKVDNALQSGNSQESVTEQDSKDSTYSLSSTLTLSKADYEKHKVYACEVTHQGLSSPVTKSFNRGEC
With B8 the “biacore IC binding” value [1] was 1.1 relative to SG1 (=1.00) and the celluar uptake [2] was 0.99 relative to SG1 (=1.00).

B9: M103205H795-P1494m/M103202L889-SK1 (antibody, human IgG1, kappa)
heavy: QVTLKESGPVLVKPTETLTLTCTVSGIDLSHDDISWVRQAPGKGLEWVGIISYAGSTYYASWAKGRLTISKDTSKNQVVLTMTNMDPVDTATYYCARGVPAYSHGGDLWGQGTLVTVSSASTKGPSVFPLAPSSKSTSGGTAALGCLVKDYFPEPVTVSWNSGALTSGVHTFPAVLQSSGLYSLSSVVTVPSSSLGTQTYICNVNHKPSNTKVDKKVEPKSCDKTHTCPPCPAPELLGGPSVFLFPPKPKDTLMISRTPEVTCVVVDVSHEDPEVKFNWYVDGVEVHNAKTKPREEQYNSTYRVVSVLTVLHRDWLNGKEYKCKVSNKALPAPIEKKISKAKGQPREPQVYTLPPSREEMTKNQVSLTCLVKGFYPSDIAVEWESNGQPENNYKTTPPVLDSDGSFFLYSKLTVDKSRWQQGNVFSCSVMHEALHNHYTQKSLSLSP
light: DIVMTQSPATLSLSPGERATLSCTSSQSVYHANWLSWFQQKPGQPPKLLIYWASTLAYGVPSRFSGSGSGTDFTLTISSLQPEDAATYYCAGGYGGGRYAFGQGTKVEIKRTVAAPSVFIFPPSDEQLKSGTASVVCLLNNFYPREAKVQWKVDNALQSGNSQESVTEQDSKDSTYSLSSTLTLSKADYEKHKVYACEVTHQGLSSPVTKSFNRGEC
With B9 the “biacore IC binding” value [1] was 1.14 relative to SG1 (=1.00) and the celluar uptake [2] was 1.12 relative to SG1 (=1.00).

B10: M103205H795-P1487m/M103202L889-SK1 (antibody, human IgG1, kappa)
heavy: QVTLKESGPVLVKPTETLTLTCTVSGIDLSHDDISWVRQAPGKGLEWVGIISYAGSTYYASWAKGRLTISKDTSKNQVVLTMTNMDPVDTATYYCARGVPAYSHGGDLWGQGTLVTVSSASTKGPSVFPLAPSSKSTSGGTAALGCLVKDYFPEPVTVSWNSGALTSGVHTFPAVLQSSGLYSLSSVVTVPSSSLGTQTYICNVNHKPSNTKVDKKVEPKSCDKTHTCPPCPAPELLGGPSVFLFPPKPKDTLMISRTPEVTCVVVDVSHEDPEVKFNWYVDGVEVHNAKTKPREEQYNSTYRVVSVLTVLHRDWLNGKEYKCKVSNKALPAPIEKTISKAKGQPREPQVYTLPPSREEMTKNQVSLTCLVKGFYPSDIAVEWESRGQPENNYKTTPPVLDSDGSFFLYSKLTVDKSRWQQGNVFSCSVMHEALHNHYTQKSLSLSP
light: DIVMTQSPATLSLSPGERATLSCTSSQSVYHANWLSWFQQKPGQPPKLLIYWASTLAYGVPSRFSGSGSGTDFTLTISSLQPEDAATYYCAGGYGGGRYAFGQGTKVEIKRTVAAPSVFIFPPSDEQLKSGTASVVCLLNNFYPREAKVQWKVDNALQSGNSQESVTEQDSKDSTYSLSSTLTLSKADYEKHKVYACEVTHQGLSSPVTKSFNRGEC
With B10 the “biacore IC binding” value [1] was 1.46 relative to SG1 (=1.00) and the celluar uptake [2] was 1.23 relative to SG1 (=1.00).

B11: M103205H795-P1383m/M103202L889-SK1 (antibody, human IgG1, kappa)
heavy: QVTLKESGPVLVKPTETLTLTCTVSGIDLSHDDISWVRQAPGKGLEWVGIISYAGSTYYASWAKGRLTISKDTSKNQVVLTMTNMDPVDTATYYCARGVPAYSHGGDLWGQGTLVTVSSASTKGPSVFPLAPSSKSTSGGTAALGCLVKDYFPEPVTVSWNSGALTSGVHTFPAVLQSSGLYSLSSVVTVPSSSLGTQTYICNVNHKPSNTKVDKKVEPKSCDKTHTCPPCPAPELLGGPSVFLFPPKPKDTLMISRTPEVTCVVVDVSHEDPEVKFNWYVDGVEVHNAKTKPREEQYNSTYRVVSVLTVLHRDWLNGKEYKCKVSNKALPAPIEKTISKAKGQPREPQVYTLPPSREEMTKNQVSLTCLVKGFYPSDIAVEWESNGQPENNYKTTPPVLDRDGSFFLYSKLTVKKSRWQQGNVFSCSVMHEALHNHYTQKSLSLSP
light: DIVMTQSPATLSLSPGERATLSCTSSQSVYHANWLSWFQQKPGQPPKLLIYWASTLAYGVPSRFSGSGSGTDFTLTISSLQPEDAATYYCAGGYGGGRYAFGQGTKVEIKRTVAAPSVFIFPPSDEQLKSGTASVVCLLNNFYPREAKVQWKVDNALQSGNSQESVTEQDSKDSTYSLSSTLTLSKADYEKHKVYACEVTHQGLSSPVTKSFNRGEC
notes: also called MS1032LO06-P1383m
B11 was tested, and the “biacore IC binding” value [1] was 1.41 relative to SG1 (=1.00) and the celluar uptake [2] was 5.68 relative to SG1 (=1.00).

B12: M103205H795-P1492m/M103202L889-SK1 (antibody, human IgG1, kappa)
heavy: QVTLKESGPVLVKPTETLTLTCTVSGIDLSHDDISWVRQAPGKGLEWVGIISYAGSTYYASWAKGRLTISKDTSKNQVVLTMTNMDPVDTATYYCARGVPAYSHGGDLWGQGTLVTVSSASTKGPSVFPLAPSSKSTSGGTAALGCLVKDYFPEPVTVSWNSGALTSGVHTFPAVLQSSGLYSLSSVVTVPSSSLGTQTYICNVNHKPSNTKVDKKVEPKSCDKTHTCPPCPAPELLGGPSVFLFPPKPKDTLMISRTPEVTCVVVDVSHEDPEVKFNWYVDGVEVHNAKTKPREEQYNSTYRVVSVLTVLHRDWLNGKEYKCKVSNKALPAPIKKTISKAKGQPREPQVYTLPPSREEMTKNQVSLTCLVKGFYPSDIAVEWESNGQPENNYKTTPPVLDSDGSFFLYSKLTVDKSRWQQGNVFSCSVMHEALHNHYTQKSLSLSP
light: DIVMTQSPATLSLSPGERATLSCTSSQSVYHANWLSWFQQKPGQPPKLLIYWASTLAYGVPSRFSGSGSGTDFTLTISSLQPEDAATYYCAGGYGGGRYAFGQGTKVEIKRTVAAPSVFIFPPSDEQLKSGTASVVCLLNNFYPREAKVQWKVDNALQSGNSQESVTEQDSKDSTYSLSSTLTLSKADYEKHKVYACEVTHQGLSSPVTKSFNRGEC
In the case of B12, the “biacore IC binding” value [1] is reported as 0.88 relative to SG1 (=1.00) and the celluar uptake [2] is reported as 1.13 relative to SG1 (=1.00).

B13: M103205H795-P1484m/M103202L889-SK1 (antibody, human IgG1, kappa)
heavy: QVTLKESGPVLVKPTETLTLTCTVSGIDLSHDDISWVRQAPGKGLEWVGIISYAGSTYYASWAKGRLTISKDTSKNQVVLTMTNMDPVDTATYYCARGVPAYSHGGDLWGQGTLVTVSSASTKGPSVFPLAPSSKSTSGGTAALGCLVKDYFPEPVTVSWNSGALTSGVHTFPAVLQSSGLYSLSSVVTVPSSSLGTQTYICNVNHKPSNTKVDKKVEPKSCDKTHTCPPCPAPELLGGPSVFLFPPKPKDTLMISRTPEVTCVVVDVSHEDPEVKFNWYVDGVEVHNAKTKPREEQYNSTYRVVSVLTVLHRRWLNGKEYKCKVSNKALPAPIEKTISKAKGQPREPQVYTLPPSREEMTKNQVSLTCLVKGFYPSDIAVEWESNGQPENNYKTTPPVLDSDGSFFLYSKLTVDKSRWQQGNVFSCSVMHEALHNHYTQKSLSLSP
light: DIVMTQSPATLSLSPGERATLSCTSSQSVYHANWLSWFQQKPGQPPKLLIYWASTLAYGVPSRFSGSGSGTDFTLTISSLQPEDAATYYCAGGYGGGRYAFGQGTKVEIKRTVAAPSVFIFPPSDEQLKSGTASVVCLLNNFYPREAKVQWKVDNALQSGNSQESVTEQDSKDSTYSLSSTLTLSKADYEKHKVYACEVTHQGLSSPVTKSFNRGEC
B13 was tested, and the “biacore IC binding” value [1] was 1.33 relative to SG1 (=1.00) and the celluar uptake [2] was 0 relative to SG1 (=1.00).

B14: M103205H795-P1491m/M103202L889-SK1 (antibody, human IgG1, kappa)
heavy: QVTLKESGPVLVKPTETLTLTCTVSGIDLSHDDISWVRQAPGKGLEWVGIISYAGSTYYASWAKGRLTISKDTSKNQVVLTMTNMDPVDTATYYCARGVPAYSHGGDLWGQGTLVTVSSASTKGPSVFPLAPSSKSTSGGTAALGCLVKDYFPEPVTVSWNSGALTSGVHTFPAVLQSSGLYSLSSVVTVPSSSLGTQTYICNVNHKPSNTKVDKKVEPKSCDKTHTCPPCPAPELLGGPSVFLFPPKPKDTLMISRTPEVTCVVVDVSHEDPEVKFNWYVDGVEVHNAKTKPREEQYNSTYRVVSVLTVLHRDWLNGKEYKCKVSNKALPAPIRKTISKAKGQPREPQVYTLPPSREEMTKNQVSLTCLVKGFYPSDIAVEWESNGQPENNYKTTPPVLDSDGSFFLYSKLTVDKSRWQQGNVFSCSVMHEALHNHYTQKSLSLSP
light: DIVMTQSPATLSLSPGERATLSCTSSQSVYHANWLSWFQQKPGQPPKLLIYWASTLAYGVPSRFSGSGSGTDFTLTISSLQPEDAATYYCAGGYGGGRYAFGQGTKVEIKRTVAAPSVFIFPPSDEQLKSGTASVVCLLNNFYPREAKVQWKVDNALQSGNSQESVTEQDSKDSTYSLSSTLTLSKADYEKHKVYACEVTHQGLSSPVTKSFNRGEC
For B14, the “biacore IC binding” value [1] was 1.05 relative to SG1 (=1.00) and the celluar uptake [2] was 1.37 relative to SG1 (=1.00).
